The numbers were not newly measured in PMC8797470, “Disruption of the pentraxin 3/CD44 interaction as an efficient therapy for triple‐negative breast cancers” (Clinical and Translational Medicine, 2022), which cites them from elsewhere.

One may read the Kd as the concentration at which binding is half-saturated.

In this series the target is PTX3 (Homo sapiens) (UniProt P26022).
Chain of PTX3 (Homo sapiens) (P26022 18-381): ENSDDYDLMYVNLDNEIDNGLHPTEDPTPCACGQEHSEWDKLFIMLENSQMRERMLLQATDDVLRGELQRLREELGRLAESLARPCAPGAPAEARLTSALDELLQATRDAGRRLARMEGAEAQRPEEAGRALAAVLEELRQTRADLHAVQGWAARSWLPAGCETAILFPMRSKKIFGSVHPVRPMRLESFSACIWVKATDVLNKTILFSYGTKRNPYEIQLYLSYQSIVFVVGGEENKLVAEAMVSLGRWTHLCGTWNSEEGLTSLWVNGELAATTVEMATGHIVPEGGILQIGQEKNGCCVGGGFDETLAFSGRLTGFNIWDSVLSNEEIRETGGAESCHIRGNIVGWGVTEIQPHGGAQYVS

Chain of TSG-6 link module (P98066 36-129): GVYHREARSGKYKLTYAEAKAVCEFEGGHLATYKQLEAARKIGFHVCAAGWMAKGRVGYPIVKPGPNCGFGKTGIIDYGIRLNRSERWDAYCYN

Regarding TSG-6 link module (from UniProt P98066), the Kd was 481 nM.
